US20160244728A1, “CULTURE METHOD FOR PLURIPOTENT STEM CELLS AND KIT AND MEDIUM FOR CULTURE OF PLURIPOTENT STEM CELLS USED THEREIN” (FUJIFILM Corporation, priority 2013, published 2016)

Experiments:
[1] = tested on: human iPS cells; assay: Evaluation of maintenance of undifferentiated state; type: cell-based; details: for form of the iPS cell colony: FIGS. 3A to 3E, TeSR2, subcultured every six days; for maintenance of the undifferentiated state (NANOG staining): FIGS. 4A to 4E, after culture for 1 month
Procedure: iPS cells collected in the same manner as in <Cell adhesiveness evaluation 1> were suspended in TeSR2. The iPS cells were seeded into 6-well plate (Tissue culture-treated, Falcon), onto which each of the samples 1, 2, 5, 6, and 7 used in <Cell adhesiveness evaluation 1> was adsorbed in the same manner as in <Cell adhesiveness evaluation 1>, and cultured in a CO2 incubator at 37° C. Except for the day after the seeding, the medium was replaced every day. In the same method as described above, the cells were subcultured every six days. FIGS. 3A to 3E show forms of the iPS cells cultured on each of the samples.
After being cultured for 1 month under the conditions described above, the cells were immobilized using 4% paraformaldehyde and treated with 1% Triton-X/PBS so as to enhance the membrane permeability. After the cells were subjected to a blocking treatment using an Image IT Signal Enhancer (Invitrogen), an anti-human NANOG antibody (AF 1997, R&D Systems, Inc.), an Alexa Fluor 555 binding rabbit anti-goat IgG antibody (Invitrogen), and DAPI (Dojindo Molecular Technologies, Inc.) were added thereto for labeling, and the cells were imaged using a fluorescence microscope. FIGS. 4A to 4E show the fluorescence microscopic images.
FIGS. 3A and 4A show the iPS cells cultured on RCP-1; FIGS. 3B and 4B show the iPS cells cultured on RCP-11; FIGS. 3C and 4C show the iPS cells cultured on natural human vitronectin; FIGS. 3D and 4D show the iPS cells cultured on rLaminin-5; and FIGS. 3E and 4E show the iPS cells cultured on rLaminin-511. The scale bar in the images indicates 100 μm. In FIGS. 3A to 3E, the images on the left side are full images of the colony, and the images on the right side are magnified images. In FIGS. 4A to 4E, the images on the left side are images of the cells stained with DAPI, and the images on the right side are images of the cells stained with an anti-NANOG antibody. The scale bar in FIGS. 3 and 4 indicates 200 μm.

[2] = tested on: human iPS cells; assay: Growth evaluation, growth curves over 8 days; type: cell-based; details: FIG. 2; 250 cells/well
Procedure: The iPS cells collected in the same manner as in <Cell adhesiveness evaluation 1> were seeded into a 96-well plate, onto which RCP-1, RCP-11, and natural human vitronectin were adsorbed, at a ratio of 250 cells/well and cultured for 8 days in a 5% CO2 incubator at 37° C. The number of adhesive cells after different days of culture was measured in the same manner as in <Cell adhesiveness evaluation 1>, thereby obtaining growth curves. […] In FIG. 2, a black rhombus indicates a case using RCP-1, and a black square indicates a case using RCP-11.

[3] = Evaluation of adsorbability with respect to culture dish; type: physicochemical; details: FIG. 1; for adsorbability with respect to the plate (in words): 0 to 200 pmol/cm^2 added, 2 hours at 37° C., compared with RCP-11
Procedure: Each of the polypeptides obtained as above was diluted with a predetermined buffer such that they could be added to wells at a predetermined final concentration of 0 pmol/cm^2 to 200 pmol/cm^2. Thereafter, each of the polypeptides was added in an amount of 64 μL to a plasma-treated 96-well plate made of polystyrene (Tissue Culture-Treated, Falcon). Each of the polypeptides was allowed to adsorb onto the plate by being incubated for 2 hours at 37° C., and then the wells were washed twice with PBS, thereby obtaining surfaces coated with each of the polypeptides of RCP-1 to RCP-16.
Among the surfaces coated with each of the polypeptides obtained as above, the surfaces coated with RCP-1 and RCP-11 to RCP-16 were applied with 64 μL of a borate buffer and 64 μL of 1 N NaOH, followed by incubation for 24 hours at 80° C. and 100% humidity. After the resultant was air-cooled, 75 μL of a borate buffer was added to each well, and 50 μL of a reaction solution obtained by mixing OPA (o-phthalaldehyde: Wako Pure Chemical Industries, Ltd./methanol solution (160 mg/ml)) with N-acetyl-L-cysteine (NAC: Wako Pure Chemical Industries, Ltd.)/borate buffer solution (2 mg/ml) at a ratio of 1:100 (mass ratio) was further added thereto. After incubation for 30 minutes at 40° C., the fluorescence intensity thereof was measured by using an Envision Multilabel Counter (PerkinElmer Inc.) (excitation 355 nm/fluorescence 486 nm). A calibration curve was separately prepared from each of the polypeptide solutions so as to calculate the amount of the polypeptide adsorbed. In FIG. 1, a black rhombus indicates RCP-1, a black square indicates RCP-11, a black triangle indicates RCP-12, a black circle indicates RCP-13, a white rhombus indicates RCP-14, a white square indicates RCP-15, and a white triangle indicates RCP-16.

| Molecule | form of the iPS cell colony [1] | maintenance of the undifferentiated state (NANOG staining) [1] | number of cells on Day 8 of culture relative to the case where RCP-1 was used [2] | adsorbability with respect to the plate (in words) [3] | amount adsorbed onto the plate relative to the polypeptide including SEQ ID NO: 3 [3] |
| --- | --- | --- | --- | --- | --- |
| RCP-11: recombinant polypeptide corresponding to the sequence of natural human vitronectin, positions 1-459 (protein, Synthetic Peptide CRP-11) GPLGDQESCKGRCTEGFNVDKKCQCDELCSYYQSCCTDYTAECKPQVTRGDVFTMPEDEYTVYDDGEEKNNATVHEQVGGPSLTSDLQAQSKGNPEQTPVLKPEEEAPAPEVGASKPEGIDSRPETLHPGRPQPPAEEELCSGKPFDAFTDLKNGSLFAFRGQYCYELDEKAVRPGYPKLIRDVWGIEGPIDAAFTRINCQGKTYLFKGSQYWRFEDGVLDPDYPRNISDGFDGIPDNVDAALALPAHSYSGRERVYFFKGKQYWEYQFQHQPSQEECEGSSLSAVFEHFAMMQRDSWEDIFELLFWGRTSAGTRQPQFISRDWHGVPGQVDAAMAGRIYISGMAPRPSLAKKQRFRHRNRKGYRSQRGHSRGRNQNSRRPSRATWLSLFSSEESNLGANNYDDYRMDWLVPATCEPIQSVFFFSGDKYYRVNLRTRRVDTVDPPYPRSIAQYWLGCPAPGHL | form specific to undifferentiated cells | strongly expressed NANOG in the entirety of the colony | about 1/3 | – | – |
| RCP-15: recombinant polypeptide, human vitronectin positions 56-459 (protein, Synthetic Peptide RCP-15) GPLGYTVYDDGEEKNNATVHEQVGGPSLTSDLQAQSKGNPEQTPVLKPEEEAPAPEVGASKPEGIDSRPETLHPGRPQPPAEEELCSGKPFDAFTDLKNGSLFAFRGQYCYELDEKAVRPGYPKLIRDVWGIEGPIDAAFTRINCQGKTYLFKGSQYWRFEDGVLDPDYPRNISDGFDGIPDNVDAALALPAHSYSGRERVYFFKGKQYWEYQFQHQPSQEECEGSSLSAVFEHFAMMQRDSWEDIFELLFWGRTSAGTRQPQFISRDWHGVPGQVDAAMAGRIYISGMAPRPSLAKKQRFRHRNRKGYRSQRGHSRGRNQNSRRPSRATWLSLFSSEESNLGANNYDDYRMDWLVPATCEPIQSVFFFSGDKYYRVNLRTRRVDTVDPPYPRSIAQYWLGCPAPGHL | – | – | – | excellent adsorbability | – |
| RCP-1: recombinant polypeptide, human vitronectin positions 1-55 and 269-459, methionine on the N-terminal (protein, Synthetic Peptide RCP-1) MDQESCKGRCTEGFNVDKKCQCDELCSYYQSCCTDYTAECKPQVTRGDVFTMPEDEPSQEECEGSSLSAVFEHFAMMQRDSWEDIFELLFWGRTSAGTRQPQFISRDWHGVPGQVDAAMAGRIYISGMAPRPSLAKKQRFRHRNRKGYRSQRGHSRGRNQNSRRPSRATWLSLFSSEESNLGANNYDDYRMDWLVPATCEPIQSVFFFSGDKYYRVNLRTRRVDTVDPPYPRSIAQYWLGCPAPGHL | form specific to undifferentiated cells | strongly expressed NANOG in the entirety of the colony | – | excellent adsorbability | – |
| RCP-16: recombinant polypeptide, human vitronectin positions 269-459 (protein, Synthetic Peptide RCP-16) GPLGPSQEECEGSSLSAVFEHFAMMQRDSWEDIFELLFWGRTSAGTRQPQFISRDWHGVPGQVDAAMAGRIYISGMAPRPSLAKKQRFRHRNRKGYRSQRGHSRGRNQNSRRPSRATWLSLFSSEESNLGANNYDDYRMDWLVPATCEPIQSVFFFSGDKYYRVNLRTRRVDTVDPPYPRSIAQYWLGCPAPGHL | – | – | – | excellent adsorbability | – |
| RCP-13: recombinant polypeptide, human vitronectin positions 1-55, 56-129 (protein, Synthetic Peptide RCP-13) GPLGDQESCKGRCTEGFNVDKKCQCDELCSYYQSCCTDYTAECKPQVTRGDVFTMPEDEYTVYDDGEEKNNATVHEQVGGPSLTSDLQAQSKGNPEQTPVLKPEEEAPAPEVGASKPEGIDSRPETLHPGRPQP | – | – | – | – | about 1/4 |
